{"source": "paper PMC9486129", "about": "“An evolutionary divergent thermodynamic brake in ZAP-70 fine-tunes the kinetic proofreading in T cells” (The Journal of Biological Chemistry, 2022)", "molecular_target": "T1, ZAP-70 tandem SH2 domain R192A (1-256)", "T1 construct": "numbers count on: PDB 2OQ1 (holo-tSH2 structure); also called tSH2 R192A; C-SH2 domain mutant; source: E. coli BL21(DE3), purified (Ni-NTA, Q column, gel filtration)", "experiment": "ITC; Malvern PEAQ-ITC, 20 °C; C-SH2 mutant tSH2 (R192A, printed R190A in the methods) in 20 mM Hepes pH 8.2, 150 mM NaCl, 5 mM β-mercaptoethanol; titrated with 300 μM peptide; one-site binding model; constant printed under the column Kd2", "details": "both partners purified", "note": "Where no end group is shown, it is not given here. [ ]: non-standard residue; d: D form. pY = N[C@@H](Cc1ccc(OP(=O)(O)O)cc1)C(=O)O"}
{"binder": "DGL[pY]QGLSTATKDT[pY]DALH", "note": "[doubly-phosphorylated ITAM-ζ3 peptide]", "values": [{"measurement": "Kd", "value": "12 ± 0.9", "unit": "µM"}]}
